# T1: human interleukin-38 (IL-38) (human, UniProt Q8WWZ1 1-152)
# T1 construct: The Adipogen protein is called full length; also called IL1F10/IL38; IL1F10
# T1 sequence (looked up): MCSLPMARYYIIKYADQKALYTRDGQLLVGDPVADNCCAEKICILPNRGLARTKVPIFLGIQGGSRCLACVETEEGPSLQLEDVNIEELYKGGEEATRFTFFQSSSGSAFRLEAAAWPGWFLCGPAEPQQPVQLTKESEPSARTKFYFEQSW
# T2: IL-18 (human, UniProt Q14116 1-193, limits assumed)
# T2 sequence (looked up): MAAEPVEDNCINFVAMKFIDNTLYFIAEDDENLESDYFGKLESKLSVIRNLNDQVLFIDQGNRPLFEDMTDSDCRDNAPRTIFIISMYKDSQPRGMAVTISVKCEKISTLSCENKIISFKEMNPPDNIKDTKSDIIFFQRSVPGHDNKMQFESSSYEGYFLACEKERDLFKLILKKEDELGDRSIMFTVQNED
# T3: IL-37 (human, UniProt Q9NZH6 1-218, limits assumed)
# T3 sequence (looked up): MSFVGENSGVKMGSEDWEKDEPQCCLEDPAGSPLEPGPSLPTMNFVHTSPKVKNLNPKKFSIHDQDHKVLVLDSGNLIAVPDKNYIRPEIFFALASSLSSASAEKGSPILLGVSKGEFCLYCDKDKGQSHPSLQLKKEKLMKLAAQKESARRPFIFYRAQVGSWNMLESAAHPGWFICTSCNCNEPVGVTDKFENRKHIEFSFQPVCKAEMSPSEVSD
# T4: IL-1α (human, UniProt P01583 1-271, limits assumed)
# T4 sequence (looked up): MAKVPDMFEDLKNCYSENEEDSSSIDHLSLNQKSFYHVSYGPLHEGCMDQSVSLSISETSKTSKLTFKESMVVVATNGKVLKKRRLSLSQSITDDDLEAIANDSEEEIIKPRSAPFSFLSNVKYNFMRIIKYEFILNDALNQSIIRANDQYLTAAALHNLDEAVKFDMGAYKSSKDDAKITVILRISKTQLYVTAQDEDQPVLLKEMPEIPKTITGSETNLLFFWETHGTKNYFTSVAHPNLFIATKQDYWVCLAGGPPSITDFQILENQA
# T5: IL-36a (human, UniProt Q9UHA7 1-158, limits assumed)
# T5 sequence (looked up): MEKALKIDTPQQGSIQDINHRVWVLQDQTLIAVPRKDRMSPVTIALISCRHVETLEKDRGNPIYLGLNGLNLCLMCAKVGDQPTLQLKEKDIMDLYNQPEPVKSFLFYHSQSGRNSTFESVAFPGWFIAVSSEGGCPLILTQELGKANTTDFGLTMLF
# T6: IL-36g (human, UniProt Q9NZH8 1-169, limits assumed)
# T6 sequence (looked up): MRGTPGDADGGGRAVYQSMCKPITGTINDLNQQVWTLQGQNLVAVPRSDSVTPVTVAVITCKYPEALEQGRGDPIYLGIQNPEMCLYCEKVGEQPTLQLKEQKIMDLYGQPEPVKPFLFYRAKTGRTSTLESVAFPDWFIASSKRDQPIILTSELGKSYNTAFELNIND
# T7: IL-36Ra (human, UniProt Q9UBH0 1-155, limits assumed)
# T7 sequence (looked up): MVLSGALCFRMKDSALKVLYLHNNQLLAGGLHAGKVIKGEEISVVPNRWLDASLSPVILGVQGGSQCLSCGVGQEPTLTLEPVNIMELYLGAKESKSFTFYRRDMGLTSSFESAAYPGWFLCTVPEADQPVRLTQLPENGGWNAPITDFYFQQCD
# T8: IL-33 (human, UniProt O95760 1-270, limits assumed)
# T8 sequence (looked up): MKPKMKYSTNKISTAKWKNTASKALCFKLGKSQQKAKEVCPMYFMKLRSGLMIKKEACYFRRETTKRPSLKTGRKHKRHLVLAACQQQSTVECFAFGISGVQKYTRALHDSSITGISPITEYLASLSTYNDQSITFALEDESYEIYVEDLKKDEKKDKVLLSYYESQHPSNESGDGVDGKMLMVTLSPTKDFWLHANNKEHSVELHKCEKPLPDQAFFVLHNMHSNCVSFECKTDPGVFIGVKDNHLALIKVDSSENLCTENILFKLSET
# T9: IL-36b (human, UniProt Q9NZH7 1-164, limits assumed)
# T9 sequence (looked up): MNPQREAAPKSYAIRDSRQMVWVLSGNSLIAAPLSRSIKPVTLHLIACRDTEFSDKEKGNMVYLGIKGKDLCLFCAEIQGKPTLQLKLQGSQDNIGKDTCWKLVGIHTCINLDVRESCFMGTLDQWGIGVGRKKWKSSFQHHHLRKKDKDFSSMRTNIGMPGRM
# B1: CD1-M3 (antibody, V domains shown)
# VH: EVQLQQSGPELVKPGASVKIPCKASGYTFTDYNMDWVKQSHGKSLEWIGDINPNNGGTIYNQKFKGKATLTVDKSSSTAYMELRSLTSEDTAVYYCSRPYYGYFAYWGQGTLVTVSA
# VL: DVVMTQSPLSLPVSLGDQASISCRSSQSLVHSHENTFLHWYLQKPGQSPKLLIYRVSNRFSGVPDRFSGSGSGTDFTLKISRVEAEDLGVYFCSQSTHVPLTFGAGTKLELK
# notes: Mouse monoclonal from a hybridoma of a CD-1 mouse immunized with full length recombinant IL-38
# Experiments:
# [1] = biological target: T1, human interleukin-38 (IL-38); assay: BLI (Octet QKe), antibody on anti-mouse Fc biosensors, soluble IL-38, 1:1 model
# Method: Antibody was loaded to AMC probes, blocked in the kinetics buffer for 1 min (baseline) and dipped into an appropriate IL-38 solution. IL-38 association to antibodies of interest was measured for 180 seconds at 28° C. Biosensors were subsequently dipped into kinetics buffer-containing wells and the protein dissociation was measured for 600 s. KD, Kon and Kdis values were identified using the 1:1 built-in model of the ForteBio's Data Analysis 9 software.
# [2] = biological target: T2, IL-18; assay: CDI HuProt native protein microarray, IL-1 family members
# Method: (§1) To confirm specificity to IL-38, several lead candidate antibodies (CD1-M3, CD1-M8, NZB-M8) were analyzed in a High-Spec Cross-reactivity Assay using native HuProt arrays (CDI Laboratories). […] of antibody was incubated overnight in a cold room, washed, and probed with anti-human secondary antibodies. Fluorescence intensity (F635) as an indicator of binding was measured for each spot. CDI software quantified the specificity of the antibody to each spot based on a Z-score. Z-score is defined as [F635−(Average F635 on array)]/(Standard deviation of F635 on array). S-score is defined as the difference between the Z-score of a given protein and the Z-score of the next highest protein.
# [3] = biological target: T3, IL-37; assay: as above
# Method: as §1
# [4] = biological target: T4, IL-1α; assay: as above
# Method: as §1
# [5] = biological target: T1, human interleukin-38 (IL-38); assay: as above
# Method: as §1
# [6] = biological target: T5, IL-36a; assay: as above
# Method: as §1
# [7] = biological target: T6, IL-36g; assay: as above
# Method: as §1
# [8] = biological target: T7, IL-36Ra; assay: as above
# Method: as §1
# [9] = biological target: IL-1β (human, UniProt P01584 1-269, limits assumed); assay: as above
# Method: as §1
# [10] = biological target: T8, IL-33; assay: as above
# Method: as §1
# [11] = biological target: T9, IL-36b; assay: as above
# Method: as §1
binder,measurement,setting,value
B1,Kd,[1],721 pM
same,Z-score,[2],-0.016
same,Z-score,[3],-0.013
same,Z-score,[4],-0.013
same,Z-score,[5],140
same,Z-score,[6],-0.008
same,Z-score,[7],-0.017
same,Z-score,[8],-0.017
same,Z-score,[9],-0.016
same,Z-score,[10],-0.02
same,Z-score,[11],-0.016
